One block for each binder: values may come before it.
Experiments:
[1] = target: His-Fascin (human, UniProt Q16658 1-493); experiment: pull-down
[2] = target: GST-Fascin (human, UniProt Q16658 1-493); experiment: pull-down

- binding result [1]: binds
B1: GST-PCAF (enzyme)
chain: MSEAGGAGPGGCGAGAGAGAGPGALPPQPAALPPAPPQGSPCAAAAGGSGACGPATAVAAAGTAEGPGGGGSARIAVKKAQLRSAPRAKKLEKLGVYSACKAEESCKCNGWKNPNPSPTPPRADLQQIIVSLTESCRSCSHALAAHVSHLENVSEEEMNRLLGIVLDVEYLFTCVHKEEDADTKQVYFYLFKLLRKSILQRGKPVVEGSLEKKPPFEKPSIEQGVNNFVQYKFSHLPAKERQTIVELAKMFLNRINYWHLEAPSQRRLRSPNDDISGYKENYTRWLCYCNVPQFCDSLPRYETTQVFGRTLLRSVFTVMRRQLLEQARQEKDKLPLEKRTLILTHFPKFLSMLEEEVYSQNSPIWDQDFLSASSRTSQLGIQTVINPPPVAGTISYNSTSSSLEQPNAGSSSPACKASSGLEANPGEKRKMTDSHVLEEAKKPRVMGDIPMELINEVMSTITDPAAMLGPETNFLSAHSARDEAARLEERRGVIEFHVVGNSLNQKPNKKILMWLVGLQNVFSHQLPRMPKEYITRLVFDPKHKTLALIKDGRVIGGICFRMFPSQGFTEIVFCAVTSNEQVKGYGTHLMNHLKEYHIKHDILNFLTYADEYAIGYFKKQGFSKEIKIPKTKYVGYIKDYEGATLMGCELNPRIPYTEFSVIIKKQKEIIKKLIERKQAQIRKVYPGLSCFKDGVRQIPIESIPGIRETGWKPSGKEKSKEPRDPDQLYSTLKSILQQVKSHQSAWPFMEPVKRTEAPGYYEVIRFPMDLKTMSERLKNRYYVSKKLFMADLQRVFTNCKEYNPPESEYYKCANILEKFFFSKIKEAGLIDK

- binding result [2]: binds
B2: His-PCAF (enzyme)
chain: B1 chain

- binding result [1]: binds
B3: GST-fused C-terminal BROMO (659-832) domain of PCAF (domain or fragment)
chain: FSVIIKKQKEIIKKLIERKQAQIRKVYPGLSCFKDGVRQIPIESIPGIRETGWKPSGKEKSKEPRDPDQLYSTLKSILQQVKSHQSAWPFMEPVKRTEAPGYYEVIRFPMDLKTMSERLKNRYYVSKKLFMADLQRVFTNCKEYNPPESEYYKCANILEKFFFSKIKEAGLIDK

- binding result [1]: binds
B4: GST-fused N-terminal (1-492) domain of PCAF (domain or fragment)
chain: MSEAGGAGPGGCGAGAGAGAGPGALPPQPAALPPAPPQGSPCAAAAGGSGACGPATAVAAAGTAEGPGGGGSARIAVKKAQLRSAPRAKKLEKLGVYSACKAEESCKCNGWKNPNPSPTPPRADLQQIIVSLTESCRSCSHALAAHVSHLENVSEEEMNRLLGIVLDVEYLFTCVHKEEDADTKQVYFYLFKLLRKSILQRGKPVVEGSLEKKPPFEKPSIEQGVNNFVQYKFSHLPAKERQTIVELAKMFLNRINYWHLEAPSQRRLRSPNDDISGYKENYTRWLCYCNVPQFCDSLPRYETTQVFGRTLLRSVFTVMRRQLLEQARQEKDKLPLEKRTLILTHFPKFLSMLEEEVYSQNSPIWDQDFLSASSRTSQLGIQTVINPPPVAGTISYNSTSSSLEQPNAGSSSPACKASSGLEANPGEKRKMTDSHVLEEAKKPRVMGDIPMELINEVMSTITDPAAMLGPETNFLSAHSARDEAARLEERRG

From article PMC8696220 (Cancer Communications, 2021)
